Experimental data as given in publication PMC3946611, “hCLE/C14orf166 Associates with DDX1-HSPC117-FAM98B in a Novel Transcription-Dependent Shuttling RNA-Transporting Complex” (PLoS ONE, 2014).

Target: the molecule itself
Experiment: native gel or EMSA; purified hCLE-CBD, dialyzed, non-denaturing gel, Western blot against hCLE

B1: hCLE-TAP tagged protein, purified as hCLE-CBD (natural protein, human, UniProt Q9Y224 1-244, looked up)
chain: MFRRKLTALDYHNPAGFNCKDETEFRNFIVWLEDQKIRHYKIEDRGNLRNIHSSDWPKFFEKYLRDVNCPFKIQDRQEAIDWLLGLAVRLEYGDNAEKYKDLVPDNSKTADNATKNAEPLINLDVNNPDFKAGVMALANLLQIQRHDDYLVMLKAIRILVQERLTQDAVAKANQTKEGLPVALDKHILGFDTGDAVLNEAAQILRLLHIEELRELQTKINEAIVAVQAIIADPKTDHRLGKVGR
notes: hCLE/C14orf166, human; In the cells the protein carries the whole TAP tag (hCLE-TAP); after the TEV step of the purification it is hCLE-CBD; also called hCLE/C14orf166; protein C14orf166 (CLE); source: HEK293T, transfected with pChCLE-TAP; TAP purified (IgG-Sepharose, Calmodulin-Agarose) from total, nuclear or cytosolic extracts
With B1 as the protein, how does the “stoichiometry N” value read?
Its value is 2.
